Assays:
HLA-A*02:01 [1] = experiment: IEDB peptide-MHC binding, purified MHC/competitive/fluorescence; filed as Kd, often an IC50 or EC50 that approximates it; ≥ and ≤ were set here for values at or beyond the usual limits of such assays
HLA-A*02:03 = experiment: as above
HLA-A*02:11 = experiment: as above; conditions: source organism: Vibrio vulnificus
HLA-A*02:12 = experiment: as above
HLA-A*02:16 = experiment: as above; conditions: source organism: Vibrio vulnificus
HLA-A*02:19 = experiment: as above
HLA-A*03:01 = experiment: as above
HLA-A*23:01 = experiment: as above
HLA-A*24:03 = experiment: as above
HLA-A*26:01 = experiment: as above
HLA-A*29:02 = experiment: as above
HLA-A*68:02 = experiment: as above; conditions: source organism: Vibrio vulnificus
HLA-A*69:01 [2] = experiment: as above; conditions: source organism: Vibrio vulnificus
HLA-B*15:01 [3] = experiment: as above
HLA-B*15:17 [4] = experiment: as above; conditions: source organism: Vibrio vulnificus
HLA-B*18:01 [5] = experiment: as above
HLA-B*27:03 = experiment: as above
HLA-B*39:01 = experiment: as above
HLA-B*46:01 [6] = experiment: as above
HLA-B*51:01 [7] = experiment: as above
HLA-B*57:01 [8] = experiment: as above
HLA-A*24:02 = experiment: as above
HLA-C*14:02 = experiment: IEDB peptide-MHC binding, purified MHC/direct/fluorescence; filed as Kd, often an IC50 or EC50 that approximates it; ≥ and ≤ were set here for values at or beyond the usual limits of such assays
HLA-C*06:02 = experiment: as above; conditions: source organism: Cryptosporidium parvum Iowa II
HLA-C*15:02 = experiment: as above; conditions: source organism: Cryptosporidium parvum Iowa II
HLA-B*53:01 = experiment: IEDB peptide-MHC binding, purified MHC/competitive/fluorescence; ≥ and ≤ were set here for values at or beyond the usual limits of such assays; conditions: source organism: Human herpesvirus 4 type 2
HLA-A*01:01 = experiment: IEDB peptide-MHC binding, purified MHC/direct/fluorescence; filed as Kd, often an IC50 or EC50 that approximates it; ≥ and ≤ were set here for values at or beyond the usual limits of such assays; conditions: source organism: Mycobacterium tuberculosis
HLA-A*02:01 [9] = experiment: as above; conditions: source organism: Mycobacterium tuberculosis
HLA-A*69:01 [10] = experiment: as above; conditions: source organism: Mycobacterium tuberculosis
HLA-B*08:01 = experiment: as above; conditions: source organism: Mycobacterium tuberculosis str. Haarlem
HLA-B*15:01 [11] = experiment: as above; conditions: source organism: Mycobacterium tuberculosis
HLA-B*15:17 [12] = experiment: as above; conditions: source organism: Mycobacterium tuberculosis
HLA-B*18:01 [13] = experiment: as above; conditions: source organism: Mycobacterium tuberculosis
HLA-B*27:05 = experiment: as above; conditions: source organism: Mycobacterium tuberculosis
HLA-B*40:01 = experiment: as above; conditions: source organism: Mycobacterium tuberculosis
HLA-B*46:01 [14] = experiment: as above; conditions: source organism: Mycobacterium tuberculosis
HLA-B*48:01 = experiment: as above; conditions: source organism: Mycobacterium tuberculosis
HLA-B*51:01 [15] = experiment: as above; conditions: source organism: Mycobacterium tuberculosis
HLA-B*57:01 [16] = experiment: as above; conditions: source organism: Mycobacterium tuberculosis
HLA-B*58:01 = experiment: as above; conditions: source organism: Mycobacterium tuberculosis
HLA-A*11:01 = experiment: IEDB peptide-MHC binding, purified MHC/competitive/fluorescence; filed as Kd, often an IC50 or EC50 that approximates it; ≥ and ≤ were set here for values at or beyond the usual limits of such assays; conditions: source organism: Mycobacterium leprae
HLA-A*31:01 = experiment: as above; conditions: source organism: Mycobacterium leprae
HLA-B*15:09 = experiment: as above; conditions: source organism: Mycobacterium leprae
[17] = source organism: Vibrio vulnificus
[18] = source organism: Bacillus thuringiensis serovar tochigiensis BGSC 4Y1
[19] = source organism: Vibrio vulnificus YJ016
[20] = source organism: Cryptosporidium parvum Iowa II
[21] = source organism: Mycobacterium leprae

Sequence: DEWECTRDD
- Kd (HLA-A*02:01 [1]; [17]): ≥ 20 µM
- Kd (HLA-A*02:03; [17]): ≥ 20 µM
- Kd (HLA-A*02:11): ≥ 20 µM
- Kd (HLA-A*02:12; [17]): ≥ 20 µM
- Kd (HLA-A*02:16): ≥ 20 µM
- Kd (HLA-A*02:19; [17]): ≥ 20 µM
- Kd (HLA-A*03:01; [17]): ≥ 20 µM
- Kd (HLA-A*23:01; [17]): ≥ 20 µM
- Kd (HLA-A*24:03; [17]): ≥ 20 µM
- Kd (HLA-A*26:01; [17]): ≥ 20 µM
- Kd (HLA-A*29:02; [17]): ≥ 20 µM
- Kd (HLA-A*68:02): ≥ 20 µM
- Kd (HLA-A*69:01 [2]): ≥ 20 µM
- Kd (HLA-B*15:01 [3]; [17]): ≥ 20 µM
- Kd (HLA-B*15:17 [4]): ≥ 20 µM
- Kd (HLA-B*18:01 [5]; [17]): 0.0594 µM
- Kd (HLA-B*27:03; [17]): ≥ 20 µM
- Kd (HLA-B*39:01; [17]): ≥ 20 µM
- Kd (HLA-B*46:01 [6]; [17]): ≥ 20 µM
- Kd (HLA-B*51:01 [7]; [17]): ≥ 20 µM
- Kd (HLA-B*57:01 [8]; [17]): ≥ 20 µM

Sequence: IYAAISYMI
- Kd (HLA-A*24:02; source organism: Salmonella enterica subsp. enterica serovar Typhi): ≤ 0.0001 µM

Sequence: KYAKFFQNF
- Kd (HLA-C*14:02; [18]): 0.428 µM
- Kd (HLA-A*24:02; [18]): ≤ 0.0001 µM

Sequence: LTDEQKNAV
- Kd (HLA-A*02:01 [1]; [19]): ≥ 20 µM
- Kd (HLA-A*02:03; [19]): ≥ 20 µM
- Kd (HLA-A*02:12; [19]): 0.856 µM
- Kd (HLA-A*02:19; [19]): ≥ 20 µM
- Kd (HLA-A*03:01; [19]): ≥ 20 µM
- Kd (HLA-A*23:01; [19]): ≥ 20 µM
- Kd (HLA-A*24:03; [19]): ≥ 20 µM
- Kd (HLA-A*26:01; [19]): ≥ 20 µM
- Kd (HLA-A*29:02; [19]): ≥ 20 µM
- Kd (HLA-B*15:01 [3]; [19]): ≥ 20 µM
- Kd (HLA-B*18:01 [5]; [19]): ≥ 20 µM
- Kd (HLA-B*27:03; [19]): ≥ 20 µM
- Kd (HLA-B*39:01; [19]): ≥ 20 µM
- Kd (HLA-B*46:01 [6]; [19]): ≥ 20 µM
- Kd (HLA-B*51:01 [7]; [19]): ≥ 20 µM
- Kd (HLA-B*57:01 [8]; [19]): ≥ 20 µM

Sequence: SFLHWFHHL
- Kd (HLA-C*06:02): ≥ 20 µM
- Kd (HLA-C*14:02; [20]): 0.111 µM
- Kd (HLA-C*15:02): ≥ 20 µM
- Kd (HLA-A*23:01; [20]): ≤ 0.0001 µM

Sequence: SFYKNLIW
- Kd (HLA-A*24:02; source organism: Influenza A virus (A/swine/Korea/Hongsong2/2004(H1N2))): 0.138 µM

Sequence: TAYCPLQHW
- IC50 (HLA-B*53:01): 0.0326 µM

Sequence: YPACEAIGL
- Kd (HLA-A*01:01): ≥ 20 µM
- Kd (HLA-A*02:01 [9]): ≥ 20 µM
- Kd (HLA-A*69:01 [10]): 0.0905 µM
- Kd (HLA-B*08:01): ≥ 20 µM
- Kd (HLA-B*15:01 [11]): ≥ 20 µM
- Kd (HLA-B*15:17 [12]): ≥ 20 µM
- Kd (HLA-B*18:01 [13]): 0.166 µM
- Kd (HLA-B*27:05): ≥ 20 µM
- Kd (HLA-B*40:01): ≥ 20 µM
- Kd (HLA-B*46:01 [14]): ≥ 20 µM
- Kd (HLA-B*48:01): ≥ 20 µM
- Kd (HLA-B*51:01 [15]): ≥ 20 µM
- Kd (HLA-B*57:01 [16]): ≥ 20 µM
- Kd (HLA-B*58:01): ≥ 20 µM
- Kd (HLA-A*03:01; [21]): ≥ 20 µM
- Kd (HLA-A*11:01): 0.854 µM
- Kd (HLA-A*31:01): ≥ 20 µM
- Kd (HLA-B*15:09): 0.526 µM
- Kd (HLA-B*39:01; [21]): 0.031 µM

From the Immune Epitope Database (IEDB)
